# Test results from US20160340422A1 (published 2016).
# T1: Mouse IL-17A (mouse, UniProt Q62386 26-158)
# T1 chain: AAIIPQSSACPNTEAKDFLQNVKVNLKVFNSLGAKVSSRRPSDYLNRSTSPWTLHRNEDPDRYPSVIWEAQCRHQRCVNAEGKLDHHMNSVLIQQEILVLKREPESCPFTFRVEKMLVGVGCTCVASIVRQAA
# B1: Control antibody A (antibody, V domains shown)
# VH: QVQLKESGPGLVQPSQTLSLTCTVSGFSLTNYYVHWVRQPPGKGLEWMGGVWNDGDTSYNSVLRSRLSITRDTSKSQVLLKMSSLQTEDTATYYCAREGREGFVGYYVMDAWGPGASVTVSS
# VL: DIQMTQSPSFLSASVGERVTLSCKASQNINKYLDWFQQKLGEAPKLLIYNADNLHTGIPSRFSGSGSFSDFILTISSLQPEDDATYFCLQRESWPYTFGAGTKLELKR
# Tests used:
# Mouse IL-17A = target: T1, Mouse IL-17A; assay: ELISA
# Human IL-17A = Human IL-17A (human, UniProt Q16552 24-155); assay: ELISA
# Sequence of Human IL-17A (Q16552 24-155): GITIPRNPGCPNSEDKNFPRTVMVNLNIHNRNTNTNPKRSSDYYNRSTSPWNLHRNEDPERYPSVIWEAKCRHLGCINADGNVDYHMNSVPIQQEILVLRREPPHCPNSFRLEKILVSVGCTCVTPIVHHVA
binder,measurement,setting,value
B1,EC50,Mouse IL-17A,88 pM
same,EC50,Human IL-17A,88 pM
